Data reported in article PMC6200646 (Journal of immunology (Baltimore, Md. : 1950), 2018).
Each block holds one binder with its values, some of them ahead of it.

Tests used:
[1] = target: the molecule itself; experiment: SEC-MALS
[2] = target: T1, biot-mCD25(22-186)-BioP-TVMV-His, His cleaved (mouse, UniProt P01590 22-186, biotin); experiment: SPR
T1 sequence (looked up): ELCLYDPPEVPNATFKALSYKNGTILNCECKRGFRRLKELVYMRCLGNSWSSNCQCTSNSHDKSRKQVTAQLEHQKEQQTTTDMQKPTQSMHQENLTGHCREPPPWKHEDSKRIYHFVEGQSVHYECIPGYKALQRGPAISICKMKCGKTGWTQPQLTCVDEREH

[3] = target: T2, mCD122(27-241)-hFc-D/mCD132(23-263)-hFc-K heterodimeric Fc fusion (mouse, UniProt P16297 27-241; P34902 23-263); experiment: SPR
T2 sequence (looked up) 1: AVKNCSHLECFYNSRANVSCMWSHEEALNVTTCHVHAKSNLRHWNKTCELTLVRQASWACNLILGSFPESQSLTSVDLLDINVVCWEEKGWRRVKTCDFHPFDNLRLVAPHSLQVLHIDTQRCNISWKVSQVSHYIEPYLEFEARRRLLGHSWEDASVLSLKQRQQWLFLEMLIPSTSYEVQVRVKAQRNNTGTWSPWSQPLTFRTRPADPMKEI
T2 sequence (looked up) 2: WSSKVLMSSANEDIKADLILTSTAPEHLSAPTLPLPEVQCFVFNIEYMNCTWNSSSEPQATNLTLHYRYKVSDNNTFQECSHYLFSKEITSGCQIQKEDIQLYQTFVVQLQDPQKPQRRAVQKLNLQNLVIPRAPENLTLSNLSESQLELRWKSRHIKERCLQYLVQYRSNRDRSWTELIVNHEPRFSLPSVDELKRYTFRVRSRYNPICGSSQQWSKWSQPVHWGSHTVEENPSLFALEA

[4] = target: T3, human CD25, captured for SPR (human, UniProt P01589 22-240); experiment: SPR
T3 sequence (looked up): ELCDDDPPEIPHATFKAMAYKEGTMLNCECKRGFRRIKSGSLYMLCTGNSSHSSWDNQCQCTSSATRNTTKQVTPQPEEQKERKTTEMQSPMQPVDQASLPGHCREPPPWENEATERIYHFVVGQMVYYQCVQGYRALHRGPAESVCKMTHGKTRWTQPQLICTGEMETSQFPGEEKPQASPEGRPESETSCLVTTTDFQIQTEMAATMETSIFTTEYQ

- fold stronger affinity than mIL-2/mCD25 to mCD25 [2]: 10 fold
- fold weaker binding than mIL-2 to mIL-2Rβ/γc [3]: 45 fold
B1: mIL-2/hCD25 mouse/human chimeric fusion protein with the 12 amino acid (G3S)3 linker (other, mouse | human)
chain: APTSSSTSSSTAEAQQQQQQQQQQQQHLEQLLMDLQELLSRMENYRNLKLPRMLTFKFYLPKQATELKDLQCLEDELGPLRHVLDLTQSKSFQLEDAENFISNIRVTVVKLKGSDNTFECQFDDESATVVDFLRRWIAFCQSIISTSPQGGGSGGGSGGGSELCDDDPPEIPHATFKAMAYKEGTMLNCECKRGFRRIKSGSLYMLCTGNSSHSSWDNQCQCTSSATRNTTKQVTPQPEEQKERKTTEMQSPMQPVDQASLPGHCREPPPWENEATERIYHFVVGQMVYYQCVQGYRALHRGPAESVCKMTHGKTRWTQPQLICTGEMETSQFPGEEKPQASPEGRPESETSCLVTTTDFQIQTEMAATMETSIFTTEYQGG
modifications: glycosylated
- stoichiometry N [1]: 2

- fold weaker Kd than mIL-2 to mCD25 [4]: ~234 fold
B2: mouse IL-2 (ligand, UniProt P04351 21-169, looked up)
chain: APTSSSTSSSTAEAQQQQQQQQQQQQHLEQLLMDLQELLSRMENYRNLKLPRMLTFKFYLPKQATELKDLQCLEDELGPLRHVLDLTQSKSFQLEDAENFISNIRVTVVKLKGSDNTFECQFDDESATVVDFLRRWIAFCQSIISTSPQ

- fold weaker apparent Kd than mIL-2 to mCD25 [2]: ~1000 fold
- fold weaker apparent Kd than mIL-2 to mIL-2Rβ/γc [3]: ~680 fold
B3: mIL-2/mCD25 fusion protein with the 12 amino acid (G3S)3 linker (other, mouse)
chain: APTSSSTSSSTAEAQQQQQQQQQQQQHLEQLLMDLQELLSRMENYRNLKLPRMLTFKFYLPKQATELKDLQCLEDELGPLRHVLDLTQSKSFQLEDAENFISNIRVTVVKLKGSDNTFECQFDDESATVVDFLRRWIAFCQSIISTSPQGGGSGGGSGGGSELCLYDPPEVPNATFKALSYKNGTILNCECKRGFRRLKELVYMRCLGNSWSSNCQCTSNSHDKSRKQVTAQLEHQKEQQTTTDMQKPTQSMHQENLTGHCREPPPWKHEDSKRIYHFVEGQSVHYECIPGYKALQRGPAISICKMKCGKTGWTQPQLTCVDEREHHRFLASEESQGSRNSSPESETSCPITTTDFPQPTETTAMTETFVLTMEYKGG
modifications: glycosylated (N- and O-linked carbohydrate)
- stoichiometry N [1]: 2
